Each block holds one binder with its values, some of them ahead of it.
Molecular target: T1, recombinantly expressed human CETP N-terminally fused to GST (human, UniProt P11597 18-493, limits assumed)
T1 construct: coated antigen of the protein ELISA; also called GST-CETP; CETP protein; not shown: GST (Glutathione-S-transferase) tag at the N-terminus
T1 sequence (looked up): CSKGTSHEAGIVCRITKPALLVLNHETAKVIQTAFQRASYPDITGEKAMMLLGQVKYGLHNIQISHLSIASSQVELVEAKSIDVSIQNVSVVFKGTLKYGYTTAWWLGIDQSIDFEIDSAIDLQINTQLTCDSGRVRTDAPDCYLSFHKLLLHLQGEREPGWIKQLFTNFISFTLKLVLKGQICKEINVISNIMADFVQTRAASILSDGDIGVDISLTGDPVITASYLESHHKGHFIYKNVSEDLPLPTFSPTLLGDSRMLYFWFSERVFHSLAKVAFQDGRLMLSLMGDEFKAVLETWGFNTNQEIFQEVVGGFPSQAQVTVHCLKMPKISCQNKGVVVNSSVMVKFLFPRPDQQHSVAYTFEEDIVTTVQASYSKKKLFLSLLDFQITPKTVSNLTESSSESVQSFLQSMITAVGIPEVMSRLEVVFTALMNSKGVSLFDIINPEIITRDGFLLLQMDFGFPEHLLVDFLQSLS
Test: human CETP protein ELISA, coated protein, antibody titrated

binding result: binds
B3: monoclonal antibody BTS4-1 (antibody, V domains shown)
VH: QIQLVQSGPELKKPGETVKISCKASGYTFTDCSMHWVKQAPGQGLKWMGWINTKTGEPTYADDFKGRFAFSLETSASTAYLQINILKNEDSATYFCAAHSGKDYAIDYWGQGTSVTVSS
VL: DVLMTQTPLSLPVSLGDQASISCRSSQSIVHRNGNTYLEWYLQKPGQSPKLLIYKVSNRFSGVPDRFSGSGSGTDFTLRISRVEAQDLGVYFCFQGSRVPPTFGGGTKLEIK

binding result: binds
B4: monoclonal antibody CJ7-6-B7 (antibody, V domains shown)
VH: NVQLQESGPGLVKPSQSLSLTCTVTGHSITSDYAWNWIRQFPGNKLEWMGYITNSGSTTYNPSLKSRISITRDTSKNQFFLQLNSVTTEDTATYYCTRGGPYWGQGTLVTVSA
VL: DIVMTQSQKFMSTSVGDRVSITCKASQNVGTAVVWYQQKPGQSPKLLIYSASNRYTGVPDRFTGSGSGTDFTLTITNMQSEDLADYFCQQYSSYPLTFGAGTKLELK

Continued, binder first:

B1: monoclonal antibody 5/C7-6-C8 (antibody, V domains shown)
VH: EVQLVESGGGLVEPGGSLKLSCVASGFTFSTYAMSWFRLTPERRLEWVAAISNGGSQNSYPDSVKGRFTVSRDNAKNTLYLQMSSLRSEDTAMYYCSRNGNYFDYWGQGTTLTVSS
VL: QIVLTQSPAIMSASPGEKVTMTCSASSSISYMHWYQQKPGTSPKRWIFDTSKLASGVPARFSGSGSGTSYSLTISSMEAEDAATYYCHQRSSYPTFGSGTKLEIK
binding result: binds

B2: monoclonal antibody 12/B3-5-B11 (antibody, V domains shown)
VH: DVQLQESGPGLVKPSQSLSLTCTVTGYSITSDYAWNWIRQFPGNKLEWMGYISYSGTTTYNPSLKSRISITRHTSKNQFFLQLNSVTTEDSATYYCTRLGYYFDYWGQGTTLTVSS
VL: DIVMTQSPASLAMSVGQKVTMNCKSSQSLLSSKNQKNFLAWYQQKPGQSPKVLVYFASTRASGVPDRFIGSGSGTDFTLTISSVQAEDLADYFCQQQYNTPLTFGAGTKLELK
binding result: binds

— US20140147456A1 (AFFIRIS, published 2014)
